Data on 4 molecules can be found in doi:10.1101/2022.05.07.491039 (bioRxiv, 2022).

The chains are these.
B3: β-catenin (natural protein)
chain: MATQADLMELDMAMEPDRKAAVSHWQQQSYLDSGIHSGATTTAPSLSGKGNPEEEDVDTSQVLYEWEQGFSQSFTQEQVADIDGQYAMTRAQRVRAAMFPETLDEGMQIPSTQFDAAHPTNVQRLAEPSQMLKHAVVNLINYQDDAELATRAIPELTKLLNDEDQVVVNKAAVMVHQLSKKEASRHAIMRSPQMVSAIVRTMQNTNDVETARCTAGTLHNLSHHREGLLAIFKSGGIPALVKMLGSPVDSVLFYAITTLHNLLLHQEGAKMAVRLAGGLQKMVALLNKTNVKFLAITTDCLQILAYGNQESKLIILASGGPQALVNIMRTYTYEKLLWTTSRVLKVLSVCSSNKPAIVEAGGMQALGLHLTDPSQRLVQNCLWTLRNLSDAATKQEGMEGLLGTLVQLLGSDDINVVTCAAGILSNLTCNNYKNKMMVCQVGGIEALVRTVLRAGDREDITEPAICALRHLTSRHQEAEMAQNAVRLHYGLPVVVKLLHPPSHWPLIKATVGLIRNLALCPANHAPLREQGAIPRLVQLLVRAHQDTQRRTSMGGTQQQFVEGVRMEEIVEGCTGALHILARDVHNRIVIRGLNTIPLFVQLLYSPIENIQRVAAGVLCELAQDKEAAEAIEAEGATAPLTELLHSRNEGVATYAAAVLFRMSEDKPQDYKKRLSVELTSSLFRTEPMAWNETADLGLDIGAQGEALGYRQDDPSYRSFHSGGYGQDALGMDPMMEHEMGGHHPGADYPVDGLPDLGHAQDLMDGLPPGDSNQLAWFDTDL

Holding throughout (assay): SEC
For orientation: Size exclusion chromatography separates by hydrodynamic size, large species first.

For one assay, the target named is T1, αE-catenin R551A (mouse, UniProt P26231 1-906, R551A).
T1 sequence: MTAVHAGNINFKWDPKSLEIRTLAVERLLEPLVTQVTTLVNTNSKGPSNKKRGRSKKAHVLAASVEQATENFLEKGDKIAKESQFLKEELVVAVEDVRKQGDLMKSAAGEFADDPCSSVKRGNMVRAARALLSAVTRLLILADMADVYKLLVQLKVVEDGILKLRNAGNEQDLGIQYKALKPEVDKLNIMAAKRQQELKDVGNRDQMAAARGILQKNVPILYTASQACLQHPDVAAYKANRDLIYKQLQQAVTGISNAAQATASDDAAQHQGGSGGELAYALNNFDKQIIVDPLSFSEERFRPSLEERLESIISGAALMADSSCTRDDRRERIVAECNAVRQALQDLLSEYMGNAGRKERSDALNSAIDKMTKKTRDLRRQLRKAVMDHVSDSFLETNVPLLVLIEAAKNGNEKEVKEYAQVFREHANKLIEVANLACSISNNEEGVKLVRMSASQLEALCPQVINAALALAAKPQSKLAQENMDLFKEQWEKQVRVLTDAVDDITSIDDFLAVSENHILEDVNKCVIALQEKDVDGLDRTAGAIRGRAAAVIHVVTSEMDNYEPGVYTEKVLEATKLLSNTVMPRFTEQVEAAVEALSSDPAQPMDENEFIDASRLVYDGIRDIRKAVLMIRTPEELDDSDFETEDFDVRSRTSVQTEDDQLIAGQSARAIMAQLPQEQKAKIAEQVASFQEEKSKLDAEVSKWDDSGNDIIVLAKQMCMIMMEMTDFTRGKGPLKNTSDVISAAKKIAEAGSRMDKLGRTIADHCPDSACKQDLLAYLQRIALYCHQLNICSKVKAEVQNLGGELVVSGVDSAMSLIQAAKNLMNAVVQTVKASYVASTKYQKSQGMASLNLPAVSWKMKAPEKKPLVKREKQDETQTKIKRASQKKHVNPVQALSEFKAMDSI

The target in the assay “β-catenin” is B3.
Assay [1] deals with T2, full-length murine αE-catenin (mouse, UniProt P26231 1-906).
T2 sequence: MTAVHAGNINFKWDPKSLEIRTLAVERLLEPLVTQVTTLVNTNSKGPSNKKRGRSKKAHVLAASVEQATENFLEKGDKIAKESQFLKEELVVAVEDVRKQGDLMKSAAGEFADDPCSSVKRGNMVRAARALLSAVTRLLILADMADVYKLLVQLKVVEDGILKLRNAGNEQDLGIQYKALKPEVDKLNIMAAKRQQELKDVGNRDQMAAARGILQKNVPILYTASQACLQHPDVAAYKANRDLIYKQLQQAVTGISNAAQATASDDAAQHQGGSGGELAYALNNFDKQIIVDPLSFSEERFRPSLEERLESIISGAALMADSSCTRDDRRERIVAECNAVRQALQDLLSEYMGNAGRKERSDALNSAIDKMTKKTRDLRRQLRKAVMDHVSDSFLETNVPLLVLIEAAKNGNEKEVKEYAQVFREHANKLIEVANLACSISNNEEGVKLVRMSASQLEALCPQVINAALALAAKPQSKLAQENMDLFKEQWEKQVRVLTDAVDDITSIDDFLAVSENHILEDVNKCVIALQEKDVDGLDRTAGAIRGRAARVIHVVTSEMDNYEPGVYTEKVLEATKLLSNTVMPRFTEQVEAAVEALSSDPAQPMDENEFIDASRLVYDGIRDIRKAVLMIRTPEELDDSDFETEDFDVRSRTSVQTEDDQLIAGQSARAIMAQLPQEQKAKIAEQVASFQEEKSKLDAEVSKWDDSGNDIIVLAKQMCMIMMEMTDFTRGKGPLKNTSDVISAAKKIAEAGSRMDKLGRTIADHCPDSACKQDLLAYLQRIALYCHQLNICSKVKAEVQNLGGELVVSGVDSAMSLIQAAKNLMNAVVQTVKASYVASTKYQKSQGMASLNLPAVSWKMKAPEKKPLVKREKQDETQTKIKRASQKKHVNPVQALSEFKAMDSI

B1: chicken vinculin D1 domain (aa 1-259) (domain or fragment)
chain: MPVFHTRTIESILEPVAQQISHLVIMHEEGEVDGKAIPDLTAPVSAVQAAVSNLVRVGKETVQTTEDQILKRDMPPAFIKVENACTKLVRAAQMLQADPYSVPARDYLIDGSRGILSGTSDLLLTFDEAEVRKIIRVCKGILEYLTVAEVVETMEDLVTYTKNLGPGMTKMAKMIDERQQELTHQEHRVMLVNSMNTVKELLPVLISAMKIFVTTKNTKSQGIEEALKNRNFTVEKMSAEINEIIRVLQLTSWDEDAWA
As for B1, the binding result with αE-catenin R551A was “binds”.

B2: Mouse E-cadherin cytoplasmic domain (domain or fragment)
chain: not shown
For the molecule B2, the binding result with β-catenin is reported as “binds”.

For the molecule B3, the binding result (in assay [1]; with αE-catenin R551A) was “binds” throughout.

B4: β-catenin 78-671 (domain or fragment)
chain: QVADIDGQYAMTRAQRVRAAMFPETLDEGMQIPSTQFDAAHPTNVQRLAEPSQMLKHAVVNLINYQDDAELATRAIPELTKLLNDEDQVVVNKAAVMVHQLSKKEASRHAIMRSPQMVSAIVRTMQNTNDVETARCTAGTLHNLSHHREGLLAIFKSGGIPALVKMLGSPVDSVLFYAITTLHNLLLHQEGAKMAVRLAGGLQKMVALLNKTNVKFLAITTDCLQILAYGNQESKLIILASGGPQALVNIMRTYTYEKLLWTTSRVLKVLSVCSSNKPAIVEAGGMQALGLHLTDPSQRLVQNCLWTLRNLSDAATKQEGMEGLLGTLVQLLGSDDINVVTCAAGILSNLTCNNYKNKMMVCQVGGIEALVRTVLRAGDREDITEPAICALRHLTSRHQEAEMAQNAVRLHYGLPVVVKLLHPPSHWPLIKATVGLIRNLALCPANHAPLREQGAIPRLVQLLVRAHQDTQRRTSMGGTQQQFVEGVRMEEIVEGCTGALHILARDVHNRIVIRGLNTIPLFVQLLYSPIENIQRVAAGVLCELAQDKEAAEAIEAEGATAPLTELLHSRNEGVATYAAAVLFRMSEDKPQDYK
Turning to B4, the binding result in assay [1] was “binds”.
